Results as given in the supplement of paper PMC9170038.

Assays:
MS2 coat protein [1] = assay: apparent KD of MS2 coat protein, switch OFF state (with FMN for OFF switches, without FMN for ON switches); designed switch direction (-1 OFF switch, 1 ON switch): -1; higher = weaker reporter binding; settings: FMN input: 0 or 200 uM; Eterna round: R93 (includes R88 designs)
Outline: (§1)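 Titrations with SNAP-549-labelled MS2 coat protein ran in twofold steps from 0.7 or 1.5 nM to 3 µM, each step taking 0.8–1.5 h at the start and 10–20 min toward the end. The targets were designed RNA switches transcribed on-chip from Illumina sequencing clusters, held in 100 mM Tris-HCl pH 7.5, 80 mM KCl, 4 mM MgCl2, without or with constant ligand. Apparent KD was taken per design as the median of normalised cluster binding-curve fits.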

MS2 coat protein [2] = assay: apparent KD of MS2 coat protein, switch ON state; designed switch direction (-1 OFF switch, 1 ON switch): -1; higher = weaker reporter binding; settings: FMN input: 0 or 200 uM; Eterna round: R93 (includes R88 designs)
Outline: as §1

Sequence	apparent KD of MS2 coat protein (MS2 coat protein [1])	apparent KD of MS2 coat protein (MS2 coat protein [2])
AACAAGUCAGGAUAUACAAAAAGUAAAUAAGUAAAACAAAAGUAGAAGGGACAUGAGGAUCACCCAUGUAAAUA [JR_Exc004_Sub018]	26.7 nM	46.8 nM
UUUCACCUAGGAUAUACAUGAGGAUCACCCAUGUGAGGCGAAGGACGGAGGGAUGGUAGUAGAAGGAGGACAAG [Mod of Gedier]	21.6 nM	19.5 nM
AAAAAGUCAGGAUAUACAAAAGUGCGAAAGCACAAAAGGAAACAUGAGGAUCACCCAUGUAGAAGGGACAAGAA [Married to this design]	24.2 nM	42.3 nM
AAAGGACGAGGAUAUACAUGAGGAUCACCCAUGUGUAAAACGUAAUAAAAGAACUUAUGUAGAAGGCGUCCAAA [Mat - Exclusion 3 - Eli mod - D96]	214 nM	64.7 nM
AAAAAGCGAGGAUAUACGAAGCUAAGACAAAUAAGCAAGGGACAUGAGGAUCACCCAUGUAGAAGGCGCAAAAA [Exclusion 2-01... 60% 2]	58.6 nM	29.4 nM
AACAAGUGAGGAUAUCUGGAUAGGAAAAAGAAAACCUAUCCAGAGAAGGCACAUGAGGAUCACCCAUGUAAAAA [JL cataway mod 6]	34.6 nM	32.7 nM
AAAAUGUCAGGAUAUGCGAAGGCGUCUGAUAGACGAGGCUAGCAGAAGGGACAUGAGGAUCACCCAUGUGGAAA [Power strip 63% 2]	128 nM	125 nM
AGAAAGUUAGGAUAUACAGAUAAAAAAACGAAAAAAAAUCUGUAGAAGGAACAUGAGGAUCACCCAUGUAAAGA [Mat - Exclusion 4 - Mayanna - D105]	23.2 nM	28.7 nM
AAAAACCAAGGAUAUACAUGAGGAUCACCCAUGUAAAAAAAAAAAAAGGGAAAAAAAAGUAGAAGGUGGAAAAA [Sekhemre Shedtawy Sobekemsaf II]	38.6 nM	20.9 nM
CUCUAGUCAGGAUAUUCAAGAAAAGAAAAGAAAGAAAAGAAGAAGAAGGGACAUGAGGAUCACCCAUGUAAGAA [EteRNA is fun!]	46.5 nM	46.7 nM
AGAUGACAAGGAUAUACUAGGGAUGAUAGUAGAGAAGAAGAACAUGAGGAUCACCCAUGUAGAAGGUGUAAGAA [JR_Exc002_Sub1702]	61.1 nM	70 nM
CUUAUGUAAGGAUAUCAGUAGUAAAAAAAUAAAAUUACUACUGAGAAGGUACAUGAGGAUCACCCAUGUCCGGG [EX4 375: Super Stable 75]	24.7 nM	74.3 nM
AAAAUACAUGAGGAUCACCCAUGUGAGGAUAUGCUAUGGAAAAUAAAAAUAAAACAUAGCAGAAGGUACAAAAA [Denovo 14]	33.4 nM	18.2 nM
AAAACACAUGAGGAUCACCCAUGUGAGGAUAUGCUAUGGAAAAUAAAAAUAAAACAUAGCAGAAGGCACAAGGA [Denovo 17]	50 nM	28 nM
AAGAAGUGAGGAUAUACAAAAUAAAAGAAAAGAAAGAAAGAACAUGAGGAUCACCCAUGUAGAAGGUACAAGAA [Khakheperre Senusret II]	22 nM	29 nM
AAAAAGAGAGGAUAUACAUGAGGAUCACCCAUGUGAAAGACGAAAAAAAGUCAAAAAAGUAGAAGGCUCAAAAA [65%, Moding Exclusion3-cac2, 15]	25.4 nM	23.8 nM
